Experimental findings from patent US20240294617A1 (Ablynx, published 2024) are described below.

The target of assay [1] is T1, human serum albumin (Sigma-Aldrich A3782) (human, UniProt P02768 25-609).
T1 construct: Bought protein; also called HSA; human SA
The assay can be described thus: SPR (ProteOn), HSA immobilised, 500 nM injected, dissociation at pH 6.0.

Assay [2] deals with T1, human serum albumin (Sigma-Aldrich …). The assay can be described thus: SPR (ProteOn), HSA immobilised, 500 nM injected, dissociation at pH 5.0.
Assay [3] concerns the target T2, guinea pig serum albumin (Gentaur GPSA62) (guinea pig).
T2 construct: also called guinea pig SA
The assay can be described thus: SPR (ProteOn XPR36), SA immobilised, pH 7.4.

In assay [4] the target is T3, mouse serum albumin (Albumin Bioscience 2601) (mouse, UniProt P07724 25-608).
T3 construct: Bought protein; also called mouse SA
The assay can be described thus: SPR (ProteOn XPR36), SA immobilised, pH 7.4.

Assay [5] deals with T4, rat serum albumin (Sigma-Aldrich A4538) (rat, UniProt P02770 25-608).
T4 construct: Bought protein; also called rat SA
The assay can be described thus: SPR (ProteOn XPR36), SA immobilised, pH 7.4.

The target of assay [6] is T5, dog serum albumin (Abcam 119814) (dog, UniProt P49822 25-608).
T5 construct: Bought protein; also called dog SA
The assay can be described thus: SPR (ProteOn XPR36), SA immobilised, pH 7.4.

Assay [7] has as its target T1, human serum albumin (Sigma-Aldrich …). The assay can be described thus: SPR (ProteOn XPR36), SA immobilised, pH 7.4.
The target in assay [8] is T6, cynomolgus monkey serum albumin (generated in-house) (cynomolgus monkey, UniProt A2V9Z4 25-608, limits assumed).
T6 construct: also called cyno SA
The assay can be described thus: SPR (ProteOn XPR36), SA immobilised, pH 7.4.

Assay [9] has as its target T7, pig serum albumin (Sigma-Aldrich A4414) (pig, UniProt P08835 25-607).
T7 construct: Bought protein; also called pig SA
The assay can be described thus: SPR (ProteOn XPR36), SA immobilised, pH 7.4.

In assay [10] the target is T1, human serum albumin (Sigma-Aldrich …). The assay can be described thus: SPR (ProteOn), HSA immobilised, 500 nM injected, dissociation at pH 7.4.
The target is the same in assay [11]. The assay can be described thus: competition ELISA on coated HSA. On the technique in general: An ELISA detects its analyte on a solid surface through an enzyme-linked reagent.

B1: serum albumin binder of SEQ ID NO:19 (invention) (VHH)
VHH: EVQLVESGGGVVQPGGSLRLSCAASGSTISSYVMGWFRRAPGKEREFVAAISRSGGYTYYADSVKGRFTISRDNSKKTAYLQMNSLRPEDTALYYCAAGRYSAWYSQSYEYDYWGQGTLVTVSS
notes: Monovalent Nanobody; also called T023500043
Consider B1, for which the off-rate constant (koff) (commonly the rate constant with which the complex falls apart) worked out at 6.7e-05 s⁻¹ in assay [1]; 7.5e-05 s⁻¹ in [2]; 5.6e-05 s⁻¹ in [3]; 1.5e-05 s⁻¹ in [4]; 1.5e-05 s⁻¹ in assay [5]; 0.0025 s⁻¹ in assay [6]. Besides, the koff in [7] amounted to 3.7e-05 s⁻¹; in [8], 1.4e-05 s⁻¹; in [9], 0.036 s⁻¹; in assay [10], 6e-05 s⁻¹. The Kd (commonly the equilibrium constant for the complex coming apart) in assay [3] worked out at 0.059 nM; in assay [4] it was 0.016 nM; in [5], 0.012 nM; in assay [6], 2.8 nM; in [7] it was 0.046 nM; in [8], 0.016 nM. In assay [9], this molecule gave a Kd of 290 nM. Further, the kon (in general, the rate constant with which the complex forms) in assay [3] worked out at 940000 M⁻¹ s⁻¹; in assay [4], 940000 M⁻¹ s⁻¹; in [5], 1.2e+06 M⁻¹ s⁻¹; in assay [6], 900000 M⁻¹ s⁻¹; in [7], 790000 M⁻¹ s⁻¹; in assay [8], 830000 M⁻¹ s⁻¹. The kon in [9] was 120000 M⁻¹ s⁻¹.

B2: His6Flag3-SEQ ID NO:20 (VHH, not shown: small tags and cut ends)
VHH: EVQLVESGGGVVQPGGSLRLSCAASGSNISSYVMGWFRRAPGKEREFVAAISRSGGYTYYADSVKGRFTISRDNSKKTAYLQMNSLRPEDTALYYCAAGRYSAWYSQSYEYDYWGQGTLVTVSS
On to B2, for which the binding result in assay [11] is recorded as “binds”.
